The target of data set [1] is T1, GLP1R-L-G (human GLP-1 receptor) (Homo sapiens, UniProt P43220).
T1 construct: ID; expressed in transfected cells; host or cells: HEK cells, transient
Description: BRET assay, HEK cells transiently co-transfected with GLP1R-L-G and a Gγ construct. The data set is classed as cell-based. As to conditions: cells coexpressing GLP1R-L-G and the Gγ construct, exposed to GLP-1. A general note: BRET reads energy transfer from a luciferase to a nearby fluorophore.

The target of data set [2] is T2, M4R-GLG2 (human muscarinic acetylcholine receptor M4) (Homo sapiens, UniProt P08173).
T2 construct: ID; NOs; expressed in transfected cells; host or cells: HEK cells, transient
Briefly: BRET assay, HEK cells transiently co-transfected with M4R-GLG2 and a Gγ construct. Also noted: key to the marks not given beside the values. The data set is classed as cell-based. As to conditions: cells coexpressing M4R-GLG2 and the Gγ construct, exposed to ACh.

For data set [3], the target named is T3, GIPR-L-G (human GIP receptor) (Homo sapiens, UniProt P48546).
T3 construct: ID; NOs; expressed in transfected cells; host or cells: HEK cells, transient
T3 sequence (P48546 with tags, fused parts or gaps): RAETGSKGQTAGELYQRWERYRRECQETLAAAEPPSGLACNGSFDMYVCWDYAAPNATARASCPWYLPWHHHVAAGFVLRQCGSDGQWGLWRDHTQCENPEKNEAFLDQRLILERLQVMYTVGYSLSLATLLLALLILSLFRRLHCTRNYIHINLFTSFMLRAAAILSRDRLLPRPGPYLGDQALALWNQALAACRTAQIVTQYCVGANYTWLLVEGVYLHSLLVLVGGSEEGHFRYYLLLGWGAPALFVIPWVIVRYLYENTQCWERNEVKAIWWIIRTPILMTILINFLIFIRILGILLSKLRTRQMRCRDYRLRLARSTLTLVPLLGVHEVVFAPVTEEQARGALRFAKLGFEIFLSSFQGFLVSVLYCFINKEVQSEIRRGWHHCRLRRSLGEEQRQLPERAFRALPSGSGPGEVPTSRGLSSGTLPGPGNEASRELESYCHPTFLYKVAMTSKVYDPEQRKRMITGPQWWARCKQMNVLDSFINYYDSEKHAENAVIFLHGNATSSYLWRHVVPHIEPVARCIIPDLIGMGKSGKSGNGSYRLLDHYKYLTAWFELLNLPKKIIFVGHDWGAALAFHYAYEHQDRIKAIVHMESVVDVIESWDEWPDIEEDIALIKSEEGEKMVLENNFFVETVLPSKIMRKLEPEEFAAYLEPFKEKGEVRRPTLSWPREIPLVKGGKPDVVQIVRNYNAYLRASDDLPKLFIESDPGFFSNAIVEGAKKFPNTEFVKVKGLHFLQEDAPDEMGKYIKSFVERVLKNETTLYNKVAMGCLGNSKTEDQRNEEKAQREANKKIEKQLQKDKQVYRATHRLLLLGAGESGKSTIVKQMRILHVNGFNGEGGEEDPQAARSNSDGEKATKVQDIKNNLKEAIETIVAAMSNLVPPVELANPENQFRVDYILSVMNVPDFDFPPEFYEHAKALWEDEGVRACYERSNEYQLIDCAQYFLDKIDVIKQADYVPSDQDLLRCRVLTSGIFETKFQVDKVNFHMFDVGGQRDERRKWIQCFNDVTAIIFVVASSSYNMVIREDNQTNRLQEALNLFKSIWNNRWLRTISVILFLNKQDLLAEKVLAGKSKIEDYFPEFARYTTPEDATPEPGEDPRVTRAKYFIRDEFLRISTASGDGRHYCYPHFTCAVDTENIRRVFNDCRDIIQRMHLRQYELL
Briefly: BRET assay, HEK cells transiently co-transfected with GIPR-L-G and a Gγ construct. Type of data set: cell-based. Conditions: cells coexpressing GIPR-L-G and the Gγ construct, exposed to GIP.

The target of data set [4] is T4, A2AR-RGL (human A2A receptor) (Homo sapiens, UniProt P29274).
T4 construct: ID; NOs; expressed in transfected cells; host or cells: HEK cells, transient
T4 sequence (P29274 with tags, fused parts or gaps): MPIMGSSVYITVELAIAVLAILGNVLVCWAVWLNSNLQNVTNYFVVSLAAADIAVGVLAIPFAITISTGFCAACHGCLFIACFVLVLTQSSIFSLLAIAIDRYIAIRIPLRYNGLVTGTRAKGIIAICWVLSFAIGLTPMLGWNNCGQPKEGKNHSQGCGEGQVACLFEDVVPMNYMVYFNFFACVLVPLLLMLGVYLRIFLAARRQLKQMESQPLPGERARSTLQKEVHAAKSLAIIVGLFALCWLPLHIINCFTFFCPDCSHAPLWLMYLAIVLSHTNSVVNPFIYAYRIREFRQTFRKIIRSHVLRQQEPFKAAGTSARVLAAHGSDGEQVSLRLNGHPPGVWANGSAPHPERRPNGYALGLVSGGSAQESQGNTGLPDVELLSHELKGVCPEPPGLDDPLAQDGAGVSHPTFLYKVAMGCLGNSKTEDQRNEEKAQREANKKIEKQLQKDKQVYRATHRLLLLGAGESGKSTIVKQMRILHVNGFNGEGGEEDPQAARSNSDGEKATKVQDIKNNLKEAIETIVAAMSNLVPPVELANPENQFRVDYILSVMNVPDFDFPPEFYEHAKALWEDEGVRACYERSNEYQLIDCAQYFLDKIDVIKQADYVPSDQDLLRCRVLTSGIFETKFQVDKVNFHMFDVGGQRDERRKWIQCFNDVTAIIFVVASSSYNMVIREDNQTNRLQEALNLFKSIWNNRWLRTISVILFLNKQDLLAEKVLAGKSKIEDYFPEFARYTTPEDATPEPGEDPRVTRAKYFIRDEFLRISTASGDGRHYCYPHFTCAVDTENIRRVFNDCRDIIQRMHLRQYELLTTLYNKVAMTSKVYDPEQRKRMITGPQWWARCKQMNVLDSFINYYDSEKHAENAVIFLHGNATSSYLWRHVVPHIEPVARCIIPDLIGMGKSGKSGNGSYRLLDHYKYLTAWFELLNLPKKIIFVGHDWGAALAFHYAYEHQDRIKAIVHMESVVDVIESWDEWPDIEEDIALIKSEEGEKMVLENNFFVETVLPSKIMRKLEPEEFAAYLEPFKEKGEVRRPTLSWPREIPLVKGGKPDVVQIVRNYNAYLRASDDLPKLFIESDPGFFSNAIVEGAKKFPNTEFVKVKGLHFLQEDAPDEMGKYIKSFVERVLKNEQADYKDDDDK
Briefly: BRET assay, HEK cells transiently co-transfected with A2AR-RGL and a Gγ construct. As to conditions: cells coexpressing A2AR-RGL and the Gγ construct, exposed to Adenosine. Also noted: key to the marks not given beside the values. Type of data set: cell-based.

Data set [5] addresses T5, GCGR-RLG (glucagon receptor) (Homo sapiens, UniProt P47871).
T5 construct: 39; GCGR; RLG; Gαs; 94, 95; FP-Gγ9; 3, 4; 15; expressed in transfected cells; host or cells: HEK cells, transient
Briefly: BRET assay, HEK cells transiently co-transfected with GCGR-RLG and a Gγ construct. On the set-up: key to the marks not given beside the values. Type of data set: cell-based. Conditions: cells coexpressing GCGR-RLG and the Gγ construct, exposed to Glucagon.

A further data set deals with T6, GHSR-RLG (hGHSR) (Homo sapiens, UniProt Q92847).
T6 construct: 37; hGHSR; RLG; Gαq; 90, 91; FP-Gγ9; 3, 4; 13; expressed in transfected cells; host or cells: HEK cells, transient
Description: BRET assay, HEK cells transiently co-transfected with GHSR-RLG and a Gγ construct. The data set is classed as cell-based. Also noted: key to the marks not given beside the values. Conditions: cells coexpressing GHSR-RLG and the Gγ construct, exposed to Ghrelin.

Data set [6] concerns the target T7, M1R-GLG3 (human M1 receptor) (Homo sapiens, UniProt P11229).
T7 construct: 35; hM1R; RGLG-3; Gαq; 86, 87; FP-Gγ9; 3, 4; 11A, 11B; expressed in transfected cells; host or cells: HEK cells, transient
T7 sequence (P11229 with tags, fused parts or gaps): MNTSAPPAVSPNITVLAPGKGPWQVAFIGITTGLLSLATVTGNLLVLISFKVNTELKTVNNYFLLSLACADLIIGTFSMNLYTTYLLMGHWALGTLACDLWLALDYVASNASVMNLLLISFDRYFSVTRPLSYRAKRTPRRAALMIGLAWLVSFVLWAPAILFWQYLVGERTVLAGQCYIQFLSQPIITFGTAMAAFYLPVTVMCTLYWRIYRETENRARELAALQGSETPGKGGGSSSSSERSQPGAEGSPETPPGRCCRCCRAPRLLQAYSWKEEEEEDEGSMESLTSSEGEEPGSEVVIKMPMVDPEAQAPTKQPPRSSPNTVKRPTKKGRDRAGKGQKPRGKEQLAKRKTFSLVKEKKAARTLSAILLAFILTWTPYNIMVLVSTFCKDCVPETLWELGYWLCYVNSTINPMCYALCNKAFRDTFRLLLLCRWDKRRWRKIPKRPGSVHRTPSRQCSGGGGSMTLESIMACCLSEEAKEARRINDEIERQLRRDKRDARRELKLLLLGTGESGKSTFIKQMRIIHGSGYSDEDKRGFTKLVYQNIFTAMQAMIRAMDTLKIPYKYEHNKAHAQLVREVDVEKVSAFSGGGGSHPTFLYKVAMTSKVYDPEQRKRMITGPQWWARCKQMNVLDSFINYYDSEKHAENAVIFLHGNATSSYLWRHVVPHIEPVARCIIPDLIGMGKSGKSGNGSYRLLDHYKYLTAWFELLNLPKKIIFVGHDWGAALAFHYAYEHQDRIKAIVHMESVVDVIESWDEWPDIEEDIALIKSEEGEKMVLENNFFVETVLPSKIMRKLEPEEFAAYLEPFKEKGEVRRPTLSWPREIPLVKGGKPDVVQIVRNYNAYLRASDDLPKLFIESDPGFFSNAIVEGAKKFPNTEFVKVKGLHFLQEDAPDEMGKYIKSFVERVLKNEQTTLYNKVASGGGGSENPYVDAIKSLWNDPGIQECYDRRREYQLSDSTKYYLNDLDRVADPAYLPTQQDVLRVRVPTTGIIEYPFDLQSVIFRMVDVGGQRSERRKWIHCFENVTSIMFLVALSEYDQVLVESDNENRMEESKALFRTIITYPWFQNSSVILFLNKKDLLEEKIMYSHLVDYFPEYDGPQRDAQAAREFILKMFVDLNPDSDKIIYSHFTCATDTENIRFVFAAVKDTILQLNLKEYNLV
Briefly: BRET assay, HEK cells transiently co-transfected with M1R-GLG3 and a Gγ construct. The data set is classed as cell-based. Also noted: key to the marks not given beside the values. As to conditions: cells coexpressing M1R-GLG3 and the Gγ construct, exposed to Acetylcholin.

The next data set has as its target T8, chimeric M4R (RGLG-2) (Homo sapiens, UniProt P08173).
T8 construct: ID; NOs; expressed in transfected cells
Briefly: BRET assay of the invention, cells co-expressing chimeric M4R (RGLG-2) and FP-Gγ9. The data set is classed as cell-based. Conditions: for activation of the chimeric M4R (BRET): increasing concentrations of ligand. How it is done:
The same cells as described for FIG. 10 A were used. […] The decrease of the signal below baseline in the PTX-treated condition confirms a constitutive activity that has been described for the M4R. […]
A typical experiment has the following sequence.
The assay of the present invention was compared with a state of the art calcium based assay. […] In calcium-based assay, a calcium flux is measured in cells co-expressing recombinant M4R and modified Gαq. In the assay in accordance with the present invention, BRET in measured in cells co-expressing a chimeric M4R according to RGLG-2 (construct and cell-line from FIG. 2C, Table 6) and FP-Gγ9 (as described in FIG. 10A). The data represent mean values and they are normalized to the maximal effect of the orthosteric agonist after the subtraction of the basal values.

Data set [7] deals with T9, M4R RGLG-2 with Gαo C351S (Homo sapiens, UniProt P08173+P09471, C351S).
T9 construct: ID; NOs; expressed in transfected cells
Description: BRET assay, chimeric M4R with PTX-insensitive mutant (C351S) of Gαo in the RGLG-2 fusion construct. The data set is classed as cell-based. As to conditions: same conditions as FIG. 10B. The procedure: Cells lines were prepared as described above (Examples 13-34).

In data set [8] the target is human M1 receptor (M1R) RGLG-3 (Homo sapiens, UniProt P11229).
Description: Cells co-express a construct comprising a human M1 receptor (M1R) fused to a split Gαq protein harboring a luminescent protein (construct RGLG-3, FIG. 2C, Table 6) and the FP-Gγ9 construct (as above).
(§1) 5 or 10 minutes after the addition of coelenterazine H to the cells, the read plate is placed in the FLIPR tetra and the measurement begins.
A second plate is a compound plate, containing a mix of an agonist at its EC20 or EC80 and candidate agents to be tested if the protocol run on the FLIPR tetra is a one-addition (or co-addition) protocol (as in FIGS. 3A, 3B, 4, 5A, 6, 7B, 7C, 10B, 10C, 11B, 13, 14, 19 and 20). Alternatively, a two-addition protocol can be run on the FLIPR tetra, containing two compound plates, of which the first one usually contains different candidate agents and the second one an agonist at its EC20 or EC80 (as in FIGS. 5B, 5C, 7A, 9, 10A, 11A, 12, 15, 16, and 18). […]
The camera is adjusted in such a way that the gain is set to a maximum of 28,000× and the shutters are opened 100%. […] The read interval (emission filter 1, emission filter 2) is adjusted to the minimal value that results from the addition of the two exposure times (=2×0.1 to 3 seconds) plus the time needed to move the filters from position 1 to position 2 (0.3 sec), resulting in a maximal read frequency of 0.5 seconds (2 Hz). […]
A further data set deals with T10, chimeric GIPR (Homo sapiens, UniProt P48546).
T10 construct: ID; NOs; expressed in transfected cells
T10 sequence (P48546 with tags, fused parts or gaps): as the sequence (P48546 with tags, fused parts or gaps) above
Briefly: BRET assay, specificity of the response of the chimeric GIPR (stable cell line, FP-Gγ9). Type of data set: cell-based. As to conditions: increasing concentrations of ligand.

Data set [9] concerns receptors endogenously expressed in non-transfected HEK cells. Briefly: cAMP accumulation in non-transfected HEK cells. Type of data set: cell-based, human. Conditions: increasing concentrations of ligand. The source says:
These ligands are the following: NECA (empty inverted triangles), Corticotropin releasing factor (CRF) (empty diamonds), calcitonin (full circles), isoproterenol (full triangles), UTP (full inverted triangles) and carbachol (full squares). […]
For orientation: Cyclic AMP is a second messenger, typically raised through Gs and lowered through Gi signalling.

For data set [10], the target named is T11, hM1R fused to split Gαq harbouring a luminescent protein (type RGLG-3).
T11 chain: T7 sequence (P11229 with tags, fused parts or gaps)

Data set [11] concerns the target hM4-R RGLG-2 fusion construct with the PTX-insensitive mutant (C351S) of Gαo.
For data set [12], the target named is T12, hM4-R-Gαo^1-91-Luciferase-Gαo^92-354 fusion protein (type RGLG-2).
T12 chain: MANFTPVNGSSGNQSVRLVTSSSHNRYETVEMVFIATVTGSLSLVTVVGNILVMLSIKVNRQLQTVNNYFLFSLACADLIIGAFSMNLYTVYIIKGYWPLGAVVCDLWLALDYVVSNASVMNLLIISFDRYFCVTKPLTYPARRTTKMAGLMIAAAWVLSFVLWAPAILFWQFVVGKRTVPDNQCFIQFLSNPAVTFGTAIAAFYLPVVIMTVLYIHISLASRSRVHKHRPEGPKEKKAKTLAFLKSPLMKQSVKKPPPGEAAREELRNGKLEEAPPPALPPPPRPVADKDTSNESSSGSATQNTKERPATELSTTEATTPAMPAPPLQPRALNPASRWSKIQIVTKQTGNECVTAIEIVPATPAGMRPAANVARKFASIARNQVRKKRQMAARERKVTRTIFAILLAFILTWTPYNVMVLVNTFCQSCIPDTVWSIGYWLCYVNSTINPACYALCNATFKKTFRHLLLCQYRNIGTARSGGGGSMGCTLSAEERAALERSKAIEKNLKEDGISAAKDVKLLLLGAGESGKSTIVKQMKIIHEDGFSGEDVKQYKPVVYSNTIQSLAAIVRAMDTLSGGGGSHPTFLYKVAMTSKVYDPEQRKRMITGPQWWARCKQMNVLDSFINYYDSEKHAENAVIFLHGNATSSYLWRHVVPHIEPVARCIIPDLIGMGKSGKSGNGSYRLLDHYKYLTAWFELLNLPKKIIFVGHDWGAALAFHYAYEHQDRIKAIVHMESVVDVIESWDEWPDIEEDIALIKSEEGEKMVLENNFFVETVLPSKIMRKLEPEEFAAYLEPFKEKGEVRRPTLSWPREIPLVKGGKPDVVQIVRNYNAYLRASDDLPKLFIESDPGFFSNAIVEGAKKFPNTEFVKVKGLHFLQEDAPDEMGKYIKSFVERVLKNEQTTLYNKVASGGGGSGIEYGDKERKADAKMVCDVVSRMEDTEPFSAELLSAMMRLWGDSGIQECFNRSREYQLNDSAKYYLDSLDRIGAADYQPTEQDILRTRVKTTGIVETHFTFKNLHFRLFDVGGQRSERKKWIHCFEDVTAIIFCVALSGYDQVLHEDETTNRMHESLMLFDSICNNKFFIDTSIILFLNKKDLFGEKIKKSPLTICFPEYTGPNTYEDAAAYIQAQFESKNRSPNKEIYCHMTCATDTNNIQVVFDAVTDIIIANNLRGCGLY

“Also recorded” adds a separate entry of the source.

T1 sequence (P43220 with tags, fused parts or gaps): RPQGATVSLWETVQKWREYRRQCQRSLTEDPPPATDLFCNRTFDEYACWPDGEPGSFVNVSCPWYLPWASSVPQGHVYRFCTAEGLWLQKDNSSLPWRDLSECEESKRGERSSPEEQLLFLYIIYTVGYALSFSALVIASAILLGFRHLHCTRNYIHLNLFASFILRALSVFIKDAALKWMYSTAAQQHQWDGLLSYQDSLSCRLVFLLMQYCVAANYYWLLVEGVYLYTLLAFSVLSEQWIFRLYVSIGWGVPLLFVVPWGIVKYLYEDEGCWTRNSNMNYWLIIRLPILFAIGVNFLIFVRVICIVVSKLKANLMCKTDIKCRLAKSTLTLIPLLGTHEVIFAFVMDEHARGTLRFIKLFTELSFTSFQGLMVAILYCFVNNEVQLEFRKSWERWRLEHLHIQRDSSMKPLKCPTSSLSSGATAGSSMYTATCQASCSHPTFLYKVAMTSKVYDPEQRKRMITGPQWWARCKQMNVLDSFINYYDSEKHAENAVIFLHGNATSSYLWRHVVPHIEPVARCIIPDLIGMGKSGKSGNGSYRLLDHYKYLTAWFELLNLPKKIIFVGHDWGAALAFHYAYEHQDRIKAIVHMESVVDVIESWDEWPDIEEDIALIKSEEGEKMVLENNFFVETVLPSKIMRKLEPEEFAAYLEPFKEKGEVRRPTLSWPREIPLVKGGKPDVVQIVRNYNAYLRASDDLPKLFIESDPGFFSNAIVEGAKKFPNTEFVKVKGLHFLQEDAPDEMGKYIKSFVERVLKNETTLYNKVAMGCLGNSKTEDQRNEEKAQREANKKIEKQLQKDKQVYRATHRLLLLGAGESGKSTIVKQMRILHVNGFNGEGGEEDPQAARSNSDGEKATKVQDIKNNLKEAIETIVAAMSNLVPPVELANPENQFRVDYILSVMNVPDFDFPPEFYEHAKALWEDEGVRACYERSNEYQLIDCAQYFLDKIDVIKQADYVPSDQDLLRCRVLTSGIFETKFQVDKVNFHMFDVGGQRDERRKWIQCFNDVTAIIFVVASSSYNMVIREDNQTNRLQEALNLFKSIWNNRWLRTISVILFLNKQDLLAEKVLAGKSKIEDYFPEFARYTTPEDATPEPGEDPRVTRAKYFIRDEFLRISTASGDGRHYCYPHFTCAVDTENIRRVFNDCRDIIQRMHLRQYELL
T5 sequence (P47871 with tags, fused parts or gaps): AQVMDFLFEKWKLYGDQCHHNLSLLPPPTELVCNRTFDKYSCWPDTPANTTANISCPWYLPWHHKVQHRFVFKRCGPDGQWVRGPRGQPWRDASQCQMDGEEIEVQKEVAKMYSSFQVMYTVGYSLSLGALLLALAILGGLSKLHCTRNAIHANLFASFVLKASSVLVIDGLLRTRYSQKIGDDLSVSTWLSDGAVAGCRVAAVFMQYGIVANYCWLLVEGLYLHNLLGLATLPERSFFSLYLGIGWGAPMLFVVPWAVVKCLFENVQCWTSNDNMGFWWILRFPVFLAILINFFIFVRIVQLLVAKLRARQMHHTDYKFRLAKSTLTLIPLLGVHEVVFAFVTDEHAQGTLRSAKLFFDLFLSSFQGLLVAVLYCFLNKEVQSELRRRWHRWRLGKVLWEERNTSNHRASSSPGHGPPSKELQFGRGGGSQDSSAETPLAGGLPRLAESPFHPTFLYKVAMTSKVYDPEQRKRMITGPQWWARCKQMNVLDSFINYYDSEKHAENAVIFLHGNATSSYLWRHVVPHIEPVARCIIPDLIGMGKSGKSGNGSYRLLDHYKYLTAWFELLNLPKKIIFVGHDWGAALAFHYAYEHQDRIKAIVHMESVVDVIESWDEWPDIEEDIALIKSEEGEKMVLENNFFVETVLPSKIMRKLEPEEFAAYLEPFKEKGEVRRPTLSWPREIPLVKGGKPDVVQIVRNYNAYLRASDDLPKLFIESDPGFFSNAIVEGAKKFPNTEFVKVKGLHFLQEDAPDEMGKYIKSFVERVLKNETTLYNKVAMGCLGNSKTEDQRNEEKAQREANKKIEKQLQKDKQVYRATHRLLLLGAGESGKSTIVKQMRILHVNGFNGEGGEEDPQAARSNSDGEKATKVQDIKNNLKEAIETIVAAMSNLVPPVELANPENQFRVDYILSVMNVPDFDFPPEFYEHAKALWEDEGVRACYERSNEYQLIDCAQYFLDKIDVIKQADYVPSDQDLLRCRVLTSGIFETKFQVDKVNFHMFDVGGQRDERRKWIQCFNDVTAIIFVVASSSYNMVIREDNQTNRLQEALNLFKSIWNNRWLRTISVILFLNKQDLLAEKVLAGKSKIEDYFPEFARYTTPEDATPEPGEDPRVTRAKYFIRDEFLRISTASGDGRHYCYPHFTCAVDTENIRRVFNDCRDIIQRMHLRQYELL
Description for chimeric GIPR: as §1
Finally, a three-addition protocol can also be run on the FLIPR tetra, containing three compound plates, of which the first one usually contains different candidate agents, the second one an agonist at its EC20 and the third one an agonist at its EC80, so that a screen for both positive and negative allosteric modulators can be run at the same time.
The camera is adjusted in such a way that the gain is set to a maximum of 28,000× and the shutters are opened 100%. The signal captured is regulated by adjusting the exposure time to 0.1 to 3 seconds ideally resulting of a signal between 30,000-60,000 RLU. The read interval (emission filter 1, emission filter 2) is adjusted to the minimal value that results from the addition of the two exposure times (=2×0.1 to 3 seconds) plus the time needed to move the filters from position 1 to position 2 (0.3 sec), resulting in a maximal read frequency of 0.5 seconds (2 Hz).
Data on FIG. 6 were obtained by applying a two-addition protocol as described above with respect to FIG. 4, with the main differences being the final concentration of coelenterazine H of 6 μM, the exposure time in both channels of 1.5 seconds and the read interval of 3.3 seconds, as well as the presence of 0.2% BSA in the HBSS++ buffer for diluting peptidic ligands. […] The effects of the ligands were read for another 180 reads. Area under curve of blue/yellow ratio from count 31 to the end of the measurement was taken for the analysis and plotted against ligand concentration for the construction of the graph in FIG. 6.

For the molecule “FP-Gγ9: fusion protein of yellow fluorescent protein YPet and human G-protein gamma9, SEQ. ID. NOs. 3, 4”, the HTS compat. entry (in data set [1]; in data set [2]; in data set [3]; in data set [4]; in [5]; with GHSR-RLG (hGHSR)) was “++” in each case. In addition, the HTS compat. result in data set [6] is given as “++”.

In the case of PTX, the “effect on BRET signal changes in response to Ach” value with chimeric M4R (RGLG-2) (cells incubated over night with 100 ng/ml PTX) is “effectively blocks the BRET signal changes”; in [8], “no effect on the BRET signal changes”. In addition, the “effect on BRET signal changes in response to Ach, C351S Gαo mutant” value in [7] is on record as “rescued by the C351S substitution”.

As to `CC(C)NCC(O)c1ccc(O)c(O)c1` (stereo not drawn) [isoproterenol], the “activation of the chimeric GIPR (BRET)” value at chimeric GIPR is reported as “lack of activation”. At chimeric M4R (RGLG-2), the “activation of the chimeric M4R (BRET)” value was “lack of activation”. For the same molecule, in [9], the “activation of endogenously expressed receptors, cAMP accumulation” value (“activation of endogenously” below) is recorded as “activated; also recorded: increase in cAMP”.

Turning to “calcitonin: ligand of a receptor endogenously expressed in HEK cells”, the “activation of the chimeric GIPR (BRET)” value with chimeric GIPR is given as “lack of activation”. Further, the “activation of the chimeric M4R (BRET)” value in the data set with chimeric M4R (RGLG-2) is reported as “lack of activation”. In addition, in data set [9], the “activation of endogenously” value is recorded as “activated; also recorded: increase in cAMP”.

For `C[N+](C)(C)CCOC(N)=O` [carbachol], the “activation of the chimeric GIPR (BRET)” value at chimeric GIPR is listed as “lack of activation”. The “activation of the chimeric M4R (BRET)” value at chimeric M4R (RGLG-2) was “activation”. Besides, the “activation of endogenously” value in data set [9] is recorded as “activated; also recorded: increase in cAMP”.

With “Gγ9-FP: fusion protein of human G-protein gamma9 and yellow fluorescent protein YPet, SEQ. ID. NOs. 5, 6”, the HTS compat. entry in data set [1] and in data set [3] was “+” each time.

B1: Bordetella pertussis toxin (protein)
chain: DDPPATVYRYDSRPPEDVFQNGFTAWGNNDNVLDHLTGRSCQVGSSNSAFVSTSSSRRYTEVYLEHRMQEAVEAERAGRGTGHFIGYIYEVRADNNFYGAASSYFEYVDTYGDNAGRILAGALATYQSEYLAHRRIPPENIRRVTRVYHNGITGETTTTEYSNARYVSQQTRANPNPYTSRRSVASIVGTLVRMAPVIGACMARQAESSEAMAAWSERAGEAMVLVYYESIAYSF
As for B1, the “BRET signal change in response to acetylcholine after overnight incubation with PTX” value is reported as “shows no effect on the BRET signal changes obtained in response to Ach” in data set [10] and “The Gαo-inhibiting effects of PTX are rescued by the C351S substitution” in [11]. Also, the “BRET signal change in response to acetylcholine after overnight incubation with 100 ng/ml PTX” value in data set [12] is “PTX effectively blocks the BRET signal changes compared to the non-PTX treated condition”.

The record behind these values is patent US20130035256A1, “Chimeric Polypeptides Useful in Proximal and Dynamic High-Throughput Screening Methods” (ADDEX PHARMA SA, priority 2010, published 2013).
